Test results: the supplement of paper PMC9170038

Tested on: MS2 coat protein
Experiment: apparent KD of MS2 coat protein; higher = weaker reporter binding
Settings: Eterna round: R107
Method in brief: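 Designed RNA switches, transcribed on-chip from Illumina sequencing clusters, were titrated with SNAP-549-labelled MS2 coat protein from 0.7 or 1.5 nM to 3 µM in twofold steps. The solution was 100 mM Tris-HCl pH 7.5, 80 mM KCl, 4 mM MgCl2, with constant ligand or without it. Apparent KD is the median over each design's normalised cluster binding-curve fits.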

[1] = input ligand: theophylline 20 uM
[2] = input ligand: theophylline 2 mM
[3] = input ligand: tryptophan 2.4 mM

Sequence | apparent KD of MS2 coat protein (input ligand: arginine 13.2 mM) [nM] | apparent KD of MS2 coat protein (input ligand: none) [nM] | apparent KD of MS2 coat protein [1] [nM] | apparent KD of MS2 coat protein [2] [nM] | apparent KD of MS2 coat protein [3] [nM]
CCUUAAUAUAGAAGGAGCGCGCUAACAUGAGGAUCACCCAUGUAAAGGGUUUUGGGCUUAGCGCAGGUAGGUCGCUAUAAGAACC [Arg B Ex t2] | 60.1 | 106 | 95 | 127 | 93.9
CGAAAGCUCCUUAUGUGCUUUCGACUGGAAGGAGCGAGCGAAAGCUCAGGUAGGUCGCCAGAAACAUGAGGAUCACCCAUGUAAU [(A)''-(M)'-(A)'(Arg1)-(Arg2)-(M1)-(M2)_Design9] | 29.8 | 18 | 25.6 | 27.2 | 18.5
CGAAUACCAAUUGAUACCAGCAUGUUAACAUGAGGAUCACCCAUGUUAAGGAUAACAUAAUGCCCUUGGCAGCAACGUAAAUUCG [Aa] | 19.2 | – | 22.9 | – | 19.6
CGACUGUAAAGUCGACCGGUCAUCAAUAAUCGAGGACCGGUACGGCCGCCACUCGAUGUGAUUUCACAUGAGGAUCACCCAUGUA [Tryptophan A 17] | 24.1 | – | 26.3 | 29.1 | –
CGAGUAAGAACAAUCGAAUAACGGUUUUCGCGAGGACCGGUACGGCCGCCACUCGUGUGAUAUCACACAUGAGGAUCACCCAUGU [3'end-1] | 61.3 | – | 96.7 | 101 | –
CGAGUAGGUUCAAUCGAAUAACGGUUUUCGCGAGGACCGGUACGGCCGCCACUCGUGUGAUAUCACACAUGAGGAUCACCCAUGU [3'end-1] | 33.5 | – | 49.2 | 68 | –
CGAUAUAAGACGGCCGCCACUAUUAAGUAACAAAAUAAACAUGAGGAUCACCCAUGUACAUGGGAUAGGACCGGGUCCAAUAACG [A1] | 48.3 | – | 163 | 166 | –
CGAUAUGAGGUCGAUACCAGCAGCUUCAAGCACAUGAGGAUCACCCAUGUCCAUUUUACUUGCCCUUGGCAGCGACUUUGGAAAC [theeternabot_sameState_MS2_Theo_B_23] | 36.2 | – | 34.9 | – | 38.4
CGCCCAGUUACGGCCGCCACUUCGAUGGCAAAUGUCGAGCCUCCACAUGAGGAUCACCCAUGUCGAAGGACCGGGUACUGCUUGC [theeternabot_sameState_MS2_Trp_B_17] | 29.4 | – | 44.4 | 38 | –
CGCCUACAGGUGUACUAUUGUGGUGAAGAUACCAGAUAGCCCAAUAUCCCUUGGCAGCUUCAGACAUGAGGAUCACCCAUGUAUC [theeternabot_exclusion_MS2_Theo_A_30] | 17.8 | – | 18.7 | – | 15.5
CGGCCCUCACUUGAGGAACACCCAAGUGAUACCAGCCUGGAAACAGGCCCUUGGCAGCACUAGGUCAUCAAAGAUGACCAAGCCG [TheoAX 29 #OpenEnded #AlternativeMS2] | 17.7 | 23.8 | 42.8 | 373 | 23.1
CGGUUUGUGAUGGAUACCAGCAGAGAAAAUGUUUAUCCUAACAUGAGGAUCACCCAUGUAUGCCCUUGGCAGCUGUUGUGGGCUG [8.V] | 43.3 | – | 80.4 | – | 52.5
CGUAUUGGAAACAGUACGAGUGAUCCGGUCCGAGGACCGGUACGGCCGCCACUCGAAAUUAAUAAACAUGAGGAUCACCCAUGUA [Ex Tryptophan A 10] | 14.8 | – | 19.6 | 20.2 | –
CGUAUUGGAAACAGUACGAGUGAUCCGGUCCGAGGACCGGUACGGCCGCCACUCGAUAUAAAUAAACAUGAGGAUCACCCAUGUA [Ex Tryptophan A 12] | 17.1 | – | 16.9 | 20.3 | –
CUACAUUUGUAGAAACCGGUCAACAAUAUUCGAGGACCGGUACGGCCGCCACUCGUAUAAUUUAAUACAUGAGGAUCACCCAUGU [Tryptophan A 4] | 14.8 | – | 18.2 | 17.1 | –
CUACAUUUGUAGAAACCGGUCACCAUUACUCGAGGACCGGUACGGCCGCCACUCGUGUCAUGUGAUACAUGAGGAUCACCCAUGU [Tryptophan A 10] | 21.7 | – | 26.2 | 27.1 | –
CUCCCACUAUCUGAUACCAGAGGAUAAACGUAGACUGGGAACAUGAGGAUCACCCAUGUCCUCCCUUGGCAGCAGGACUUAUCUC [theeternabot_exclusion_MS2_Theo_B_29] | 22.2 | – | 29.9 | – | 22.2
CUCCCGUGGUCGGCCGCCACUGGAGGCCUCGCGCGACAUGAGGAUCACCCAUGUUGGCCCGGCCUCAGGACCGGGAUCGCGUGAG [#1 Same State - Tryptophan B Attempt #7 (HarryS)] | 11.2 | 13.7 | 17.9 | 11.9 | 10.9

Sequence | apparent KD of MS2 coat protein (input ligand: arginine 13.2 mM) [nM] | apparent KD of MS2 coat protein (input ligand: none) [nM] | apparent KD of MS2 coat protein [1] [nM] | apparent KD of MS2 coat protein [2] [nM] | apparent KD of MS2 coat protein [3] [nM]
CUCGUCAACUCGGCCGCCACUGACGUGUGGUCAGGCCUGUAGAAACACAUGAGGAUCACCCAUGUCAGGACCGGGAGCUUUAUUA [theeternabot_exclusion_MS2_Trp_B_26] | 31.8 | – | 73.5 | 61.6 | –
CUCUGAGUCCGUAAGGACUCAGAGGCGGAUACCAGCGAGGUCCAUCGCCCUUGGCAGCCGAACAUGAGGAUCACCCAUGUCGGUA [#1 Same State - Theophylline A Attempt #25 (HarryS)] | 11.6 | 9.76 | 12.6 | 19.8 | 11.5
CUCUGAGUGAGAAAUCACUCAGAGGCGGAUACCAGCGAGGUCCAUCGCCCUUGGCAGCCGAACAUGAGGAUCACCCAUGUCGGUA [#1 Same State - Theophylline A Attempt #21 (HarryS)] | 9.9 | 10.8 | 14 | 14.5 | 9.34
CUCUUGGCCGCAGUACGUUUAUAGACCUAUCGAGGACCGGUACGGCCGCCACUCGGUUAGUCACAUGAGGAUCACCCAUGUGUCC [theeternabot_exclusion_MS2_Trp_A_38] | 17 | – | 23 | 19.7 | –
CUUAUAUAUACGGCCGCCACUUACUCAUGAGGUAACAACAUGAGGAUCACCCAUGUUUGAGGAUCAAGGACCGGGUAUAUAUAAG [AstrosSSTry#18] | 23.2 | – | 35.9 | 33.8 | –
GAACAUGAGGAUCACCCAUGUGAGAAUGAUACCAGUAGAAGAAGAUGCCCUUGGCAGCGUGCGUGAGGAUCACCCAUGUAGGAGG [e-theoA-0] | 30 | – | 34.1 | – | 25.9
GAAGAUCCGUAAGAUACCAGUGCAGAUCGGCACAUGAGGAUCACCCAUGUAAAGCAAGAACACCCUUGGCAGCUUUCGUAACAAC [theeternabot_sameState_MS2_Theo_B_15] | 66.9 | – | 64.8 | – | 109
GAAGCUCGCGAUGAUACCAGCUCGACUGAUAACAUGAGGAUCACCCAUGUUGUGCGCCCUAGCCCUUGGCAGCAUGACAUAUUCG [theeternabot_sameState_MS2_Theo_B_46] | 47.5 | – | 126 | – | 97.8
GAGCGCGUGGACUGGCGUGCUCCGCUCCGUCGAGGACCGGUACGGCCGCCACUCGACAUGAGGAUCACCCAUGUGCGCGCUCGCU [#1 Exclusion - Tryptophan A Attempt #23 (HarryS)] | 7.37 | 27 | 177 | 27.8 | 19.8
GAGUAGAGGACGGCCGCCACUAAACAUGAGGAUCACCCAUGUCGUGAUCCGUUACCUAGGGUAGAUAGGACCGGGUCAUGUAGUC [Exclusion Tryptophan B GF 17] | 47.7 | – | 65.8 | 84.7 | –
GAUAUAUACUCGGCCGCCACUGAGAGAGUCAUGUAAACAUGAGGAUCACCCAUGUAAUAUAUAUACAGGACCGGGAGUAUAUUAA [4.C] | 16 | – | 16.1 | 14 | –
GAUCCUCAUACGGAUACCAGCGAAUAACAUGAGGAUCACCCAUGUAAUAAAGAAAAUAAAUGCCCUUGGCAGCCGAAUAGAUAGU [Same State Theophylline B GF 1] | 36.2 | – | 137 | – | 91.1
GAUGAACUAUAUGAUACCAGACAACAUGAGGAUCACCCAUGUGAAAGUCGUCCUCUGCCUGUCCCUUGGCAGCGUAUAGUUUAUC [XTheo B #14] | 61.1 | – | 76.1 | – | 28.4
GAUGAACUAUAUGAUACCAGACAACAUGAGGAUCACCCAUGUGAUUGUCGUCCUCUGCCUGUCCCUUGGCAGCGUAUAGUUUAUC [XTheo B #16] | 38.4 | – | 87.4 | – | 23.4
GAUGAACUAUUCGAUACCAGACCACAUGAGGAUCACCCAUGUGUGUUUCGUCCUUAGCCGGUCCCUUGGCAGCGAAUAGUUUAUC [#28 Exclusion-TheophyllineB] | 25.8 | – | 30.3 | – | 19.4
GAUUUUACAAAAGUAAAAUCAGUGGGUGAACGAGGACCGGUACGGCCGCCACUCGGACAUGAGGAUCACCCAUGUCCAUGUGAAA [AstrosExyTryA#21] | 17.1 | 15.7 | 18.4 | 20.6 | 61.9
GCACAAGAUGGAAGGAGCGCUGGAAAAGGUCACAUGAGGAUCACCCAUGUUCUCCGAACCGAGCAGGUAGGUCGCUAUCUUGUGC [#09 Same State - Arginine B] | 37.5 | 41.9 | 59.9 | 50.7 | 41.7
GCACCAGGUACGGAUACCAGCUGCCAUAGUUACAUGAGGAUCACCCAUGUGAUCUAUUGUAGCCCUUGGCAGCUGUACCUGGUGC [SSThB NP+V+V2 #5 Same Structure] | 71.2 | – | 398 | – | 46.8
